# Reference: US20240165165A1, “PHARMACEUTICAL COMPOSITIONS AND THEIR METHODS OF USE” (The Trustees of Indiana University, priority 2021, published 2024)
# Assays:
# [1] = system: 4T1.2 mammary tumor cells; test: MTT viability assay; assay type: cell-based, mouse
# Text: (§1) In vitro assays. Cellular viability was examined using an MTT assay (Invitrogen, Carlsbad, CA, USA) with the procedure previously described, as well as an EdU assay with a fluorescence-based cell proliferation kit (Thermo-Fisher, Waltham, MA, USA). The recombinant proteins employed included Filamin A, Pkm, Pdia3, Tpm4, Anxa2, Eef1a1, Cts1, Nme2, Dcn, Calr, Aldoa, Calm1, Tpm3, Ppib, Myh9, Ywhae, Hspa5, Hsp90aa1 (MBS962910, MBS8249600, MBS2010131, MBS145304, MBS2009095, MBS2033168, MBS143355, MBS145412, MBS2557309, MBS2009125, MBS8248528, MBS2018713, MBS144696, MBS2009092, MBS717396, MBS143242, MBS806904, MBS142709; MyBioSource, San Diego, CA, USA), Actin Gamma 1, Actn4, Hspa8, Vimentin (H00000071-P01, H00000081-P01, NBP1-30278, NBP2-35139; Novus, Littleton, CO, USA), and Hsp90ab1 (OPCA05157; Aviva system biology, San Diego, CA, USA). A TRANSWELL® chamber assay was conducted to detect invasive cellular motility, and a wound-healing scratch assay was utilized to evaluate 2-dimensional migratory behavior. The overexpression of Akt, Lrp5, β-catenin, Snail, Calr, and Ppib was conducted by transfecting plasmids (#10841, #115907, #31785, #31697, #51161, #36123; Addgene, Cambridge, MA, USA). […]
# [2] = system: 4T1.2 mammary tumor cells; test: EdU proliferation assay; assay type: cell-based, mouse
# Procedure: EdU assay. Approximately 2,000 cells were seeded in 96-well plates on day 1. CM was added on day 2 and cellular proliferation was examined using a fluorescence-based cell proliferation kit (CLICK-IT™ EDU ALEXA FLUOR™ 488 Imaging Kit; Thermo-Fisher, Waltham, MA, USA) on day 4. After fluorescent labeling, the number of fluorescently labeled cells was counted and the ratio to the total number of cells was determined.
# as §1, with “USA).” for “USA). A TRANSWELL® chamber assay was conducted to detect invasive cellular motility, and a wound-healing scratch assay was utilized to evaluate 2-dimensional migratory behavior. The overexpression of Akt, Lrp5, β-catenin, Snail, Calr, and Ppib was conducted by transfecting plasmids (#10841, #115907, #31785, #31697, #51161, #36123; Addgene, Cambridge, MA, USA).”
# [3] = system: tumor cells (MDA-MB-231, 4T1.2, EO771) vs non-tumor cells (MSCs, MLO-A5 osteocytes); test: MTT-based tumor selectivity (MSC CMs, Calr, Ppib); assay type: cell-based; details: (reduction in MTT viability of tumor cells)/(reduction in non-tumor cells)
# Procedure: Tumor-selective inhibition by MSC CMs and Calr. […] The inhibitory ratio was defined sing MTT-based viability as (reduction in MTT-based viability of tumor cells)/(reduction in MTT-based viability of non-tumor cells). […] Using three tumor cells (MDA-MB-231, 4T1.2, and EO771) and two non-tumor cells (MSCs, and MLO-A5 osteocytes), tumor selectivity for Lrp5 CM, Akt CM, Calr, and Ppib (FIG. 22) was determined. […] Akt CM also presented the tumor selectivity of 2.41±0.70.
# [4] = system: 4T1.2 mammary tumor cells; test: TRANSWELL invasion assay; assay type: cell-based, mouse
# Text: as §1
# 4T1.2 cells = test: Western blot of proteins in treated tumor cells; assay type: cell-based, mouse
# Procedure: (§2) Western blot analysis and protein array analysis. Western blot analysis was conducted using the procedure previously described. Antibodies against Lrp5, Runx2, Snail, TGFβ, sclerostin, Calr, p-eIF2α, eIF2α (Cell Signaling, Danvers, MA, USA), LIF, Trail (Novus Biologicals, Centennial, CO, USA), MMP9, NFATc1, cathepsin K (Santa Cruz Biotechnology, Dallas, TX, USA), p53, CXCL2, Ppib (Invitrogen, Carlsbad, CA, USA), Hsp90ab1 (Abcam, Cambridge, UK), and β-actin (Sigma, Saint Louis, MO, USA) were used. A proteome profiler mouse XL cytokine array kit (R&D Systems, Minneapolis, MN, USA) was also employed, and the expression of 111 cytokines and chemokines in MSC-derived CM was determined.
# EO771 cells = test: Western blot of proteins in treated tumor cells; assay type: cell-based, mouse
# Procedure: Western blot analysis and mass spectrometry. Western blot analysis was conducted using known procedures. Antibodies were used against ANXA1, β-catenin, caspase 3, Lrp5, Lrp6, Runx2, Sclerostin, Snail, TGFβ, NFATc1, cathepsin K (Cell Signaling, Danvers, MA, USA), DMP1, ANXA6, CXCL5 (Abcam, Cambridge, MA, USA), M-CSF, MMP9, OPN, TPM4 (Santa Cruz, Dallas, TX, USA), WISP1 (R&D systems, Minneapolis, MN, USA), β-actin (Sigma, Saint Louis, MO, USA), LIMA1, Trail (Novus, Centennial, CO, USA), p53 and CXCL1 (Invitrogen, Carlsbad, California, USA), and DSP (ProteinTech, Rosemont, IL, USA). The expression levels of Sclerostin and Lrp5 in CM were detected by ELISA (My BioSource, San Diego, CA, USA). Proteins from A5 osteocyte CM, Y4 osteocyte CM, and osteoclast control CM (RAW264.7 cells) were analyzed by the HF Hybrid Quadrupole Orbitrap mass spectrometry. Among 549 identified proteins, 49 proteins presented higher expression levels in A5 CM than Y4 CM and control CM. Among them, 11 proteins (p53; SPARC=osteonectin; TPM1, TPM4=tropomyosin 1 & 4; ANXA1, ANXA6=annexin A1 & A6; FMOD=fibromodulin; OGN=osteoglycin; DSP=desmoplakin; AHNAK=desmoyokin; and LIMA1=[…] domain actin-binding protein 1) were identified as potential tumor suppressors.
# as §2
# Spheroid assay, plasmid transfection, and Western blot analysis. […]
molecule,measurement,setting,value
"HSF1: HSF1 recombinant proteins (protein, UniProt P38532 1-525, looked up) Heat shock factor protein 1: MDLAVGPGAAGPSNVPAFLTKLWTLVSDPDTDALICWSPSGNSFHVFDQGQFAKEVLPKYFKHNNMASFVRQLNMYGFRKVVHIEQGGLVKPERDDTEFQHPCFLRGQEQLLENIKRKVTSVSTLKSEDIKIRQDSVTRLLTDVQLMKGKQECMDSKLLAMKHENEALWREVASLRQKHAQQQKVVNKLIQFLISLVQSNRILGVKRKIPLMLSDSNSAHSVPKYGRQYSLEHVHGPGPYSAPSPAYSSSSLYSSDAVTSSGPIISDITELAPTSPLASPGRSIDERPLSSSTLVRVKQEPPSPPHSPRVLEASPGRPSSMDTPLSPTAFIDSILRESEPTPAASNTAPMDTTGAQAPALPTPSTPEKCLSVACLDKNELSDHLDAMDSNLDNLQTMLTSHGFSVDTSALLDLFSPSVTMPDMSLPDLDSSLASIQELLSPQEPPRPIEAENSNPDSGKQLVHYTAQPLFLLDPDAVDTGSSELPVLFELGESSYFSEGDDYTDDPTISLLTGTEPHKAKDPTVS",MTT-based viability of 4T1.2 cells,[1],reduced
"Calr: recombinant calreticulin (protein, UniProt P14211 18-416, looked up) Calreticulin: DPAIYFKEQFLDGDAWTNRWVESKHKSDFGKFVLSSGKFYGDLEKDKGLQTSQDARFYALSAKFEPFSNKGQTLVVQFTVKHEQNIDCGGGYVKLFPSGLDQKDMHGDSEYNIMFGPDICGPGTKKVHVIFNYKGKNVLINKDIRCKDDEFTHLYTLIVRPDNTYEVKIDNSQVESGSLEDDWDFLPPKKIKDPDAAKPEDWDERAKIDDPTDSKPEDWDKPEHIPDPDAKKPEDWDEEMDGEWEPPVIQNPEYKGEWKPRQIDNPDYKGTWIHPEIDNPEYSPDANIYAYDSFAVLGLDLWQVKSGTIFDNFLITNDEAYAEEFGNETWGVTKAAEKQMKDKQDEEQRLKEEEEDKKRKEEEEAEDKEDDDDRDEDEDEEDEKEEDEEESPGQAKDEL",EdU-based proliferation of 4T1.2 cells,[2],significantly inhibited
same,tumor selectivity,[3],higher tumor selectivity than Ppib
same,TRANSWELL invasion of 4T1.2 cells,[4],significantly inhibited
same,phosphorylation level of eIF2α in 4T1.2 cells,4T1.2 cells,elevated
same,"tumor-promoting genes (Lrp5, MMP9, Runx2, TGFβ, Snail) in 4T1.2 cells",4T1.2 cells; Western blot,suppressed
same,MTT-based viability of 4T1.2 cells,[1],Significant reduction
"ANXA6: annexin A6 (protein, UniProt P14824 2-673, looked up) Annexin A6: AKIAQGAMYRGSVHDFPEFDANQDAEALYTAMKGFGSDKESILELITSRSNKQRQEICQNYKSLYGKDLIEDLKYELTGKFERLIVNLMRPLAYCDAKEIKDAISGVGTDEKCLIEILASRTNEQMHQLVAAYKDAYERDLESDIIGDTSGHFQKMLVVLLQGTRENDDVVSEDLVQQDVQDLYEAGELKWGTDEAQFIYILGNRSKQHLRLVFDEYLKTTGKPIEASIRGELSGDFEKLMLAVVKCIRSTPEYFAERLFKAMKGLGTRDNTLIRIMVSRSELDMLDIREIFRTKYEKSLYSMIKNDTSGEYKKALLKLCGGDDDAAGQFFPEAAQVAYQMWELSAVSRVELKGTVCAANDFNPDADAKALRKAMKGIGTDEATIIDIVTHRSNAQRQQIRQTFKSHFGRDLMADLKSEISGDLARLILGLMMPPAHYDAKQLKKAMEGAGTDEKTLIEILATRTNAEIRAINEAYKEDYHKSLEDALSSDTSGHFRRILISLATGNREEGGENRDQAQEDAQVAAEILEIADTPSGDKTSLETRFMTVLCTRSYPHLRRVFQEFIKKTNYDIEHVIKKEMSGDVKDAFVAIVQSVKNKPLFFADKLYKSMKGAGTDEKTLTRVMVSRSEIDLLNIRREFIEKYDKSLHQAIEGDTSGDFMKALLALCGGED","tumor-promoting/tumorigenic proteins (Lrp5, MMP9, Runx2, TGFβ, Snail, IL1β etc.) in EO771 cells",EO771 cells,reduced
"CXCL5: chemokine applied to EO771 cells (protein, UniProt P50228 41-132, looked up) C-X-C motif chemokine 5: APSSVIAATELRCVCLTVTPKINPKLIANLEVIPAGPQCPTVEVIAKLKNQKEVCLDPEAPVIKKIIQKILGSDKKKAKRNALAVERTASVQ","tumor-promoting/tumorigenic proteins (Lrp5, MMP9, Runx2, TGFβ, Snail, IL1β etc.) in EO771 cells",EO771 cells,increased
